Starred links: 1 amine or outer side, 2 acyl side, 3 side chain; linkers in the order of their positions; H or OH if unused. Non-standard residues stand in square brackets, D forms with d. Groups on a side chain read outwards from the residue. No end group written: not given here. *: point of attachment. C20 diacid = O=C(O)CCCCCCCCCCCCCCCCCCC(=O)*; C18 diacid = O=C(O)CCCCCCCCCCCCCCCCC(=O)*; γGlu = O=C(O)[C@H](CCC(=O)[*:2])N[*:1]; αMeF = C[C@](N)(Cc1ccccc1)C(=O)O; AEEA = NCCOCCOCC(=O)O; Aib = CC(C)(N)C(=O)O
Key:
human glucagon receptor = human glucagon receptor (human, UniProt P47871); test: cell-based or functional assay
human GLP-1 receptor = human GLP-1 receptor (human, UniProt P43220); test: cell-based or functional assay

Binder | cAMP production EC50 (human glucagon receptor) [nM] | cAMP production EC50 (human GLP-1 receptor) [nM]
H[Aib]QGTFTSDVSK[αMeF]LESK([AEEA-AEEA-γGlu-C20 diacid])RAQDFVRWLL[Aib]TE-OH (N-terminus assumed; SMILES CC(C)C[C@H](NC(=O)[C@H](Cc1c[nH]c2ccccc12)NC(=O)[C@H](CCCNC(=N)N)NC(=O)[C@@H](NC(=O)[C@H](Cc1ccccc1)NC(=O)[C@H](CC(=O)O)NC(=O)[C@H](CCC(N)=O)NC(=O)[C@H](C)NC(=O)[C@H](CCCNC(=N)N)NC(=O)[C@H](CCCCNC(=O)COCCOCCNC(=O)COCCOCCNC(=O)CC[C@H](NC(=O)CCCCCCCCCCCCCCCCCCC(=O)O)C(=O)O)NC(=O)[C@H](CO)NC(=O)[C@H](CCC(=O)O)NC(=O)[C@H](CC(C)C)NC(=O)[C@](C)(Cc1ccccc1)NC(=O)[C@H](CCCCN)NC(=O)[C@H](CO)NC(=O)[C@@H](NC(=O)[C@H](CC(=O)O)NC(=O)[C@H](CO)NC(=O)[C@@H](NC(=O)[C@H](Cc1ccccc1)NC(=O)[C@@H](NC(=O)CNC(=O)[C@H](CCC(N)=O)NC(=O)C(C)(C)NC(=O)[C@@H](N)Cc1c[nH]cn1)[C@@H](C)O)[C@@H](C)O)C(C)C)C(C)C)C(=O)N[C@@H](CC(C)C)C(=O)NC(C)(C)C(=O)N[C@H](C(=O)N[C@@H](CCC(=O)O)C(=O)O)[C@@H](C)O) [Peptide 509] | 3.02 | 0.594
H[Aib]QGTFTSDVSK[αMeF]LESK([AEEA-AEEA-γGlu-C20 diacid])RAQDFVRWLVE[Aib]G-NH2 (N-terminus assumed; SMILES CC(C)C[C@H](NC(=O)[C@H](Cc1c[nH]c2ccccc12)NC(=O)[C@H](CCCNC(=N)N)NC(=O)[C@@H](NC(=O)[C@H](Cc1ccccc1)NC(=O)[C@H](CC(=O)O)NC(=O)[C@H](CCC(N)=O)NC(=O)[C@H](C)NC(=O)[C@H](CCCNC(=N)N)NC(=O)[C@H](CCCCNC(=O)COCCOCCNC(=O)COCCOCCNC(=O)CC[C@H](NC(=O)CCCCCCCCCCCCCCCCCCC(=O)O)C(=O)O)NC(=O)[C@H](CO)NC(=O)[C@H](CCC(=O)O)NC(=O)[C@H](CC(C)C)NC(=O)[C@](C)(Cc1ccccc1)NC(=O)[C@H](CCCCN)NC(=O)[C@H](CO)NC(=O)[C@@H](NC(=O)[C@H](CC(=O)O)NC(=O)[C@H](CO)NC(=O)[C@@H](NC(=O)[C@H](Cc1ccccc1)NC(=O)[C@@H](NC(=O)CNC(=O)[C@H](CCC(N)=O)NC(=O)C(C)(C)NC(=O)[C@@H](N)Cc1c[nH]cn1)[C@@H](C)O)[C@@H](C)O)C(C)C)C(C)C)C(=O)N[C@H](C(=O)N[C@@H](CCC(=O)O)C(=O)NC(C)(C)C(=O)NCC(N)=O)C(C)C) [Peptide 508] | 2.8 | 0.0679
H[Aib]QGTFTSDVSK[αMeF]LDTK([AEEA-AEEA-γGlu-C20 diacid])RARDFVRWLL[Aib]E-OH (N-terminus assumed; SMILES CC(C)C[C@H](NC(=O)[C@H](Cc1c[nH]c2ccccc12)NC(=O)[C@H](CCCNC(=N)N)NC(=O)[C@@H](NC(=O)[C@H](Cc1ccccc1)NC(=O)[C@H](CC(=O)O)NC(=O)[C@H](CCCNC(=N)N)NC(=O)[C@H](C)NC(=O)[C@H](CCCNC(=N)N)NC(=O)[C@H](CCCCNC(=O)COCCOCCNC(=O)COCCOCCNC(=O)CC[C@H](NC(=O)CCCCCCCCCCCCCCCCCCC(=O)O)C(=O)O)NC(=O)[C@@H](NC(=O)[C@H](CC(=O)O)NC(=O)[C@H](CC(C)C)NC(=O)[C@](C)(Cc1ccccc1)NC(=O)[C@H](CCCCN)NC(=O)[C@H](CO)NC(=O)[C@@H](NC(=O)[C@H](CC(=O)O)NC(=O)[C@H](CO)NC(=O)[C@@H](NC(=O)[C@H](Cc1ccccc1)NC(=O)[C@@H](NC(=O)CNC(=O)[C@H](CCC(N)=O)NC(=O)C(C)(C)NC(=O)[C@@H](N)Cc1c[nH]cn1)[C@@H](C)O)[C@@H](C)O)C(C)C)[C@@H](C)O)C(C)C)C(=O)N[C@@H](CC(C)C)C(=O)NC(C)(C)C(=O)N[C@@H](CCC(=O)O)C(=O)O) [Peptide 510] | 0.118 | 0.176
H[Aib]QGTFTSDVSK[αMeF]LDTK([AEEA-AEEA-γGlu-C20 diacid])RARDFVAWLLE[Aib]G-NH2 [Peptide 507] | 0.0866 | 0.0529

The remaining lines, values ahead:

cAMP production EC50 (human glucagon receptor) [nM] | cAMP production EC50 (human GLP-1 receptor) [nM] | Binder
0.191 | 0.0421 | H[Aib]QGTFTSDVSK[αMeF]LDTK([AEEA-AEEA-γGlu-C20 diacid])RAQDFVQWLLE[Aib]K-NH2 (N-terminus assumed; SMILES CC(C)C[C@H](NC(=O)[C@H](Cc1c[nH]c2ccccc12)NC(=O)[C@H](CCC(N)=O)NC(=O)[C@@H](NC(=O)[C@H](Cc1ccccc1)NC(=O)[C@H](CC(=O)O)NC(=O)[C@H](CCC(N)=O)NC(=O)[C@H](C)NC(=O)[C@H](CCCNC(=N)N)NC(=O)[C@H](CCCCNC(=O)COCCOCCNC(=O)COCCOCCNC(=O)CC[C@H](NC(=O)CCCCCCCCCCCCCCCCCCC(=O)O)C(=O)O)NC(=O)[C@@H](NC(=O)[C@H](CC(=O)O)NC(=O)[C@H](CC(C)C)NC(=O)[C@](C)(Cc1ccccc1)NC(=O)[C@H](CCCCN)NC(=O)[C@H](CO)NC(=O)[C@@H](NC(=O)[C@H](CC(=O)O)NC(=O)[C@H](CO)NC(=O)[C@@H](NC(=O)[C@H](Cc1ccccc1)NC(=O)[C@@H](NC(=O)CNC(=O)[C@H](CCC(N)=O)NC(=O)C(C)(C)NC(=O)[C@@H](N)Cc1c[nH]cn1)[C@@H](C)O)[C@@H](C)O)C(C)C)[C@@H](C)O)C(C)C)C(=O)N[C@@H](CC(C)C)C(=O)N[C@@H](CCC(=O)O)C(=O)NC(C)(C)C(=O)N[C@@H](CCCCN)C(N)=O) [Peptide 505]
0.551 | 0.124 | H[Aib]QGTFTSDVSK[αMeF]LESK([AEEA-AEEA-γGlu-C20 diacid])RAQDFVRWLLE[Aib]K-OH (N-terminus assumed; SMILES CC(C)C[C@H](NC(=O)[C@H](Cc1c[nH]c2ccccc12)NC(=O)[C@H](CCCNC(=N)N)NC(=O)[C@@H](NC(=O)[C@H](Cc1ccccc1)NC(=O)[C@H](CC(=O)O)NC(=O)[C@H](CCC(N)=O)NC(=O)[C@H](C)NC(=O)[C@H](CCCNC(=N)N)NC(=O)[C@H](CCCCNC(=O)COCCOCCNC(=O)COCCOCCNC(=O)CC[C@H](NC(=O)CCCCCCCCCCCCCCCCCCC(=O)O)C(=O)O)NC(=O)[C@H](CO)NC(=O)[C@H](CCC(=O)O)NC(=O)[C@H](CC(C)C)NC(=O)[C@](C)(Cc1ccccc1)NC(=O)[C@H](CCCCN)NC(=O)[C@H](CO)NC(=O)[C@@H](NC(=O)[C@H](CC(=O)O)NC(=O)[C@H](CO)NC(=O)[C@@H](NC(=O)[C@H](Cc1ccccc1)NC(=O)[C@@H](NC(=O)CNC(=O)[C@H](CCC(N)=O)NC(=O)C(C)(C)NC(=O)[C@@H](N)Cc1c[nH]cn1)[C@@H](C)O)[C@@H](C)O)C(C)C)C(C)C)C(=O)N[C@@H](CC(C)C)C(=O)N[C@@H](CCC(=O)O)C(=O)NC(C)(C)C(=O)N[C@@H](CCCCN)C(=O)O) [Peptide 504]
0.149 | 0.162 | H[Aib]QGTFTSDVSK[αMeF]LDTK([AEEA-AEEA-γGlu-C20 diacid])RARDFVAWLLE[Aib]G-OH (N-terminus assumed; SMILES CC(C)C[C@H](NC(=O)[C@H](Cc1c[nH]c2ccccc12)NC(=O)[C@H](C)NC(=O)[C@@H](NC(=O)[C@H](Cc1ccccc1)NC(=O)[C@H](CC(=O)O)NC(=O)[C@H](CCCNC(=N)N)NC(=O)[C@H](C)NC(=O)[C@H](CCCNC(=N)N)NC(=O)[C@H](CCCCNC(=O)COCCOCCNC(=O)COCCOCCNC(=O)CC[C@H](NC(=O)CCCCCCCCCCCCCCCCCCC(=O)O)C(=O)O)NC(=O)[C@@H](NC(=O)[C@H](CC(=O)O)NC(=O)[C@H](CC(C)C)NC(=O)[C@](C)(Cc1ccccc1)NC(=O)[C@H](CCCCN)NC(=O)[C@H](CO)NC(=O)[C@@H](NC(=O)[C@H](CC(=O)O)NC(=O)[C@H](CO)NC(=O)[C@@H](NC(=O)[C@H](Cc1ccccc1)NC(=O)[C@@H](NC(=O)CNC(=O)[C@H](CCC(N)=O)NC(=O)C(C)(C)NC(=O)[C@@H](N)Cc1c[nH]cn1)[C@@H](C)O)[C@@H](C)O)C(C)C)[C@@H](C)O)C(C)C)C(=O)N[C@@H](CC(C)C)C(=O)N[C@@H](CCC(=O)O)C(=O)NC(C)(C)C(=O)NCC(=O)O) [Peptide 506]
2.31 | 0.159 | H[Aib]QGT[αMeF]TSDVSK[αMeF]LDTK([AEEA-AEEA-γGlu-C18 diacid])RAQD[αMeF]VRWLLA[Aib]G-NH2 (N-terminus assumed; SMILES CC(C)C[C@H](NC(=O)[C@H](CC(C)C)NC(=O)[C@H](Cc1c[nH]c2ccccc12)NC(=O)[C@H](CCCNC(=N)N)NC(=O)[C@@H](NC(=O)[C@](C)(Cc1ccccc1)NC(=O)[C@H](CC(=O)O)NC(=O)[C@H](CCC(N)=O)NC(=O)[C@H](C)NC(=O)[C@H](CCCNC(=N)N)NC(=O)[C@H](CCCCNC(=O)COCCOCCNC(=O)COCCOCCNC(=O)CC[C@H](NC(=O)CCCCCCCCCCCCCCCCC(=O)O)C(=O)O)NC(=O)[C@@H](NC(=O)[C@H](CC(=O)O)NC(=O)[C@H](CC(C)C)NC(=O)[C@](C)(Cc1ccccc1)NC(=O)[C@H](CCCCN)NC(=O)[C@H](CO)NC(=O)[C@@H](NC(=O)[C@H](CC(=O)O)NC(=O)[C@H](CO)NC(=O)[C@@H](NC(=O)[C@](C)(Cc1ccccc1)NC(=O)[C@@H](NC(=O)CNC(=O)[C@H](CCC(N)=O)NC(=O)C(C)(C)NC(=O)[C@@H](N)Cc1c[nH]cn1)[C@@H](C)O)[C@@H](C)O)C(C)C)[C@@H](C)O)C(C)C)C(=O)N[C@@H](C)C(=O)NC(C)(C)C(=O)NCC(N)=O) [Peptide 512]

From patent publication US12630600B2 (MEDIMMUNE LIMITED, priority 2022, dated 2026)
